{
  "source": "patent US20230304047A1",
  "target": "wildtype S. pyogenes Cas9 (S. pyogenes) (UniProt Q99ZW2)",
  "sequence (Q99ZW2 whole entry, the tested form may be a part)": "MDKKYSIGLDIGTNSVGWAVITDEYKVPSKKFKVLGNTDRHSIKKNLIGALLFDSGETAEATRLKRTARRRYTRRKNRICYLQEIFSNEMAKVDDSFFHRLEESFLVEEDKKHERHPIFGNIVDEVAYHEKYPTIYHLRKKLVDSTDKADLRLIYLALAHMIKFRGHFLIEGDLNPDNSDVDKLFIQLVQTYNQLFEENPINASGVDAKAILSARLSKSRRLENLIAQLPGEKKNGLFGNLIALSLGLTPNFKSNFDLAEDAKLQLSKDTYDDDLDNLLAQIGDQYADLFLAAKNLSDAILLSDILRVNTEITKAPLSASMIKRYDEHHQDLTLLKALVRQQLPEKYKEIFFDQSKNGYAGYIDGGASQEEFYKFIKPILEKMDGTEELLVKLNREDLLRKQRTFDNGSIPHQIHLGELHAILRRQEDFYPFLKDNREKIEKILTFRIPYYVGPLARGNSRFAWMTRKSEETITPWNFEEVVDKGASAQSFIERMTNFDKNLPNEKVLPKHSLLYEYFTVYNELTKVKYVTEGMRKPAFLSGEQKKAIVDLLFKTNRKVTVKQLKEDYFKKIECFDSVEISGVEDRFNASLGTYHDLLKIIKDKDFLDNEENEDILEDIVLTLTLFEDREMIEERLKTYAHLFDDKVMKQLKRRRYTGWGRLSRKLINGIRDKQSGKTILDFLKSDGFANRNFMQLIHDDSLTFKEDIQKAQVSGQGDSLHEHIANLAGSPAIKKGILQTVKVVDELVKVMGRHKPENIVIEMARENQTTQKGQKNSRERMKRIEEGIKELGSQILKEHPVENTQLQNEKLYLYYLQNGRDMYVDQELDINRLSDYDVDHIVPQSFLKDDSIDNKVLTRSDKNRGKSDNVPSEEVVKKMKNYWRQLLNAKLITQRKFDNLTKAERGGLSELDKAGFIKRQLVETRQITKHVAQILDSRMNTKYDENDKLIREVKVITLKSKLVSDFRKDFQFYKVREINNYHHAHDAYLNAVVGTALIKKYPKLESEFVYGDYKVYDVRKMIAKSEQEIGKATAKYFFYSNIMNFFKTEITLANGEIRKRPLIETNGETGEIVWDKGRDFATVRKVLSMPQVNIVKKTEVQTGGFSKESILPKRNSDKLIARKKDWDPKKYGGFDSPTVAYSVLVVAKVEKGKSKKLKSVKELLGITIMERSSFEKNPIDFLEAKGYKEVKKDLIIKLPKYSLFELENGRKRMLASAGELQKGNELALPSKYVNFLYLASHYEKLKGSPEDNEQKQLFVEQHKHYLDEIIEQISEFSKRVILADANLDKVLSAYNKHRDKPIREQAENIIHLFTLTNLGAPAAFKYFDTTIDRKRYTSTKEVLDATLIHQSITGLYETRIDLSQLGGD",
  "assay": "cell-based or functional assay",
  "data": [
    {"substance": "AcrIIA2-Cdt1 fusion protein", "values": [
      {"measurement": "HDR (GFP correction) in RPE1 reporter cells deficient of p53, AcrIIA2-Cdt1 protein co-transfected with WT CRISPR-Cas9 RNP", "value": 2, "unit": "fold"},
      {"measurement": "HDR (GFP correction) in RPE1 reporter cells, AcrIIA2-Cdt1 protein co-transfected with WT CRISPR-Cas9 RNP", "value": 3, "unit": "fold"}
    ]}
  ]
}
